Molecular target: human V158 FcγRIIIa (FcγR-His) (human) (UniProt P08637)
Assay: Biacore SPR

Chain of human V158 FcγRIIIa (FcγR-His) (human) (P08637 17-208 F176V limits assumed): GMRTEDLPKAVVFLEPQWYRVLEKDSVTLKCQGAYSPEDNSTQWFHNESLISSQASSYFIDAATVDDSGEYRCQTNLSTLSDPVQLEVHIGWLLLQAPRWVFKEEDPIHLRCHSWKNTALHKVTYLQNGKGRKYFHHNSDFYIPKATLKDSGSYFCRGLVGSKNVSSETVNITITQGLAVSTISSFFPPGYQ

Kd: 240 nM
Substance: 4G7 IgG1 antibody (chimeric, murine H0/L0 variable regions on human IgG1/kappa)

Source: US20080260731A1
